Results: the DeepSol protein solubility set

Test: soluble on expression in E. coli; label from the status in PepcDB or PDB records
With “MAVEDEGLRVFQSVKIKIGEAKNLPSYPGPSKMRDCYCTVNLDQEEVFRTKIVEKSLCPFYGEDFYCEIPRSFRHLSFYIFDRDVFRRDSIIGKVAIQKEDLQKYHNRDTWFQLQHVDADSEVQGKVHLELRLSEVITDTGVVCHKLATRIVECQGLPIVNGQCDPYATVTLAGPFRSEAKKTKVKRKTNNPQFDEVFYFEVTRPCSYSKKSHFDFEEEDVDKLEIRVDLWNASNLKFGDEFLGELRIPLKVLRQSSSYEAWYFLQPRDNGSKSLKPDDLGSLRLNVVYTEDHVFSSDYYSPLRDLLLKSADVEPVSASAAHILGEVCREKQEAAVPLVRLFLHYGRVVPFISAIASAEVKRTQDPNTIFRGNSLASKCIDETMKLAGMHYLHVTLKPAIEEICQSHKPCEIDPVKLKDGENLENNMENLRQYVDRVFHAITESGVSCPTVMCDIFFSLREAAAKRFQDDPDVRYTAVSSFIFLRFFAPAILSPNLFQLTPHHTDPQTSRTLTLISKTVQTLGSLSKSKSASFKESYMATFYEFFNEQKYADAVKNFLDLISSSGRRDPKSVEQPIVLKEGFMIKRAQGRKRFGMKNFKKRWFRLTNHEFTYHKSKGDQPLYSIPIENILAVEKLEEESFKMKNMFQVIQPERALYIQANNCVEAKDWIDILTKVSQCNQKRLTVYHPSAYLSGHWLCCRAPSDSAPGCSPCTGGLPANIQLDIDGDRETERIYSLFNLYMSKLEKMQEACGSKSVYDGPEQEEYSTFVIDDPQETYKTLKQVIAGVGALEQEHAQYKRDKFKKTKYGSQEHPIGDKSFQNYIRQQSETSTHSI” the “soluble on expression in E. coli” value was “soluble”. In the case of “MNIKKHLPWLGALLPIINAQADTNPNVVIIYIDDMGIGDIGCYGGKFVATPNIDKLAQDGLLFNQYYSSAPVSSPSRCGLTTGLFPIEVGINTFLNDKASNKRCEQRNYLDDKLPSMARAFQNAGYATGHIGKWHMGGGRDVHNAPSIKNYGFDEYLSTYESPDPDPAITASKWIWCDNDSIKRWKRTEYFVDKSIDFIKRHKDSPFFLNLWPDDMHTPWVPEFKQKERKSWETKEAFSPVLGEMDKQIGRFIKALDDMGLSENTIIIFTSDNGPAPSFKAVRSAYLRGTKNSLYEGGIRMPFIVKYPKKIKPGRVNNSSVLCAVDLYPTLCSVAGIKTEKNYKGDGQNYAKVLLGKSEAKRKTDLMWDFGRNKHFGFPGNPYDRSPHLAIRSGKWKLLVNGDGSDAQLYDMELDKFEKNNIAGEHPELVAKLSKKVCEWYAQNKDKGLQTDLLEHHHHHH”, the “soluble on expression in E. coli” value is reported as “soluble”. With “MGSDKIHHHHHHMNTLEKRQHEILTNPLHFCKKSGDFAKHSMSIKLSKNELFDVDFVTGIYFVEKGIVMKGTQIDDYIGYDQLLKPGDVCNFSSFMSSDLKRNIGAQLLSPSSSVITAVDRDFFIFMVEKHVSVEEFMLYQAKKEIMILQRRCLLNTLKVKDRVKHLIAAIGYEYGISNGDNIQIPQELSTTFLSKFMGITREYLSLTLSELKKEDYLLNTKIPVVINVEKLFNEIPYESLIL” the “soluble on expression in E. coli” value was “not soluble”. With “MSLSKRNKPQESKEFGFQALKINGTYVSTDIMKEERNKFFEKYKRNADVLRMNDHERNDMLLDQVIERLLLEDYVNNKSGVTATDSEVEDYINRFIKPRYGDSLGTFMSSQGYTNEEEMKAGIKEYILKHKALYKAAKEKNVTLTEQELDEGYEKHKIQNKKVDIRHIFISSQERGKEEAKKLADEIYNRLKNNEDFETLAKQYSDDEKTKESGGVITELRAGFNEAVFDNAVFTAEAGQLLEPIEVARGYEIVYVDKVTEGHHHHHH” the “soluble on expression in E. coli” value was “soluble”. In the case of “MGTNLPTEVGQILSAPTSIDYNYPTTGVWDASYDICLDSTPKTTGVNQQEIMIWFNHQGSIQPVGSPVGNTTIEGKNFVVWDGSNGMNNAMAYVATEPIEVWSFDVMSFVDHTATMEPITDSWYLTSIRAGLEPWSDGVGLGVDSFSAKVN”, the “soluble on expression in E. coli” value is reported as “soluble”. In the case of “SFLSNVKYNFMRIIKYEFILNDALNQSIIRANAQYLTAAALHNLDEAVKFDMGAYKSSKDDAKITVILRISKTQLYVTAQDEDQPVLLKEMPEIPKTITGSETNLLFFWETHGTKNYFTSVAHPNLFIATKQDYWVCLAGGPPSITDFQILENQA”, the “soluble on expression in E. coli” value is reported as “soluble”. With “MNSGRPETMENLPALYTIFQGEVAMVTDYGAFIKIPGCRKQGLVHRTHMSSCRVDKPSEIVDVGDKVWVKLIGREMKNDRIKVSLSMKVVNQGTGKDLDPNNVIIE” the “soluble on expression in E. coli” value was “soluble”. In the case of “MSLVVVSDVFVSVRGRVMLNVEAMNMTESVGNYVKHRRVPVVLPDAKYTTYFVPAISGESIAHGFQEVLAEVGKKNGLKVCKLCEKGIFLKSTNENVFKESFSSDPPKDDFEFEKTVIENCIVEDVGGFLYAPRAGGNVKRTSNFYTGYMIPVRESIEGAVIEPQLHSRYALGTPFVEGGQGQMIYYVELSSAVYTFSFDLDTRYIGRTTFSYEKAGTEVGKRSERINAALEALKKFLIEFAFGAKKTRFLPVMEWDSLVVAVSDDVWTVPSPYTAGYIDNARKKKEKVNFNTKLFVYPEGGSFEEVVVEAIEEAKERAGKEGHHHHHH”, the “soluble on expression in E. coli” value is reported as “soluble”. For “MSNVKHSKLLILGSGPAGYTAAVYAARANLKPVLVTGMQQGGQLTTTTEVENWPGDAEGLTGPALMERMKEHAERFDTEIVFDHINSVDLSSRPFRLTGDSQEYTCDALIISTGASAKYLGLESEEAFKGRGVSACATCDGFFYRNQKVAVVGGGNTAVEEALYLSNIASEVHLVHRRDSFRSEKILIDRLMDKVANGNIVLHTHRTLDEVLGDEMGVTGVRLKDTQSDMTENLDVMGVFIAIGHQPNSQIFEGQLEMKNGYIVVKSGLEGNATQTSIEGVFAAGDVMDHNYRQAITSAGTGCMAALDAERYLDSQGK”, the “soluble on expression in E. coli” value was “soluble”. For “MTPGVDGVNKTMLQARLAVELQILRDELLSGHYQPLPARRVYIPKSNGKLRPLGIPALRDRIVQRAMLMAMEPIWESDFHTLSYGFRPERSVHHAIRTVKLQLTDCGETRGRWVIEGDLSSYFDTVHHRLLMKAVRRRISDARFMTLLWKTIKAGHIDVGLFRAASEGVPQGGVISPLLSNIMLNEFDQYLHERYLSGKARKDRWYWNNSIQRGRSTAVRENWQWKPAVAYCRYADDFVLIVKGTKAQVEAIREECRGVLEGSLKLRLNMDKTKIPHVNDGFIFLGHRLIRKRSRYGEMRVVSTIPQEKARNFAASLTALLWKVRISGEILLGLEHHHHHH”, the “soluble on expression in E. coli” value was “soluble”.
